Assay results published in IntAct's records for PubMed 23856421.

B1: Dolichol-phosphate mannosyltransferase subunit 1 (Homo sapiens), O60762 (parent)
chain: MASLEVSRSPRRSRRELEVRSPRQNKYSVLLPTYNERENLPLIVWLLVKSFSESGINYEIIIIDDGSPDGTRDVAEQLEKIYGSDRILLRPREKKLGLGTAYIHGMKHATGNYIIIMDADLSHHPKFIPEFIRKQKEGNFDIVSGTRYKGNGGVYGWDLKRKIISRGANFLTQILLRPGASDLTGSFRLYRKEVLEKLIEKCVSKGYVFQMEMIVRARQLNYTIGEVPISFVDRVYGESKLGGNEIVSFLKGLLTLFATT
partner: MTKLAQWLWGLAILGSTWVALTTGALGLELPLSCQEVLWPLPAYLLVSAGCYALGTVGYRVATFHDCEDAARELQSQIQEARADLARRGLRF

Variants of: B1
Conditions: with dpm3_human DPM3, Q9P2X0

Variant | effect of a mutation on the interaction
G152V | disrupting interaction
